Tested on: c-Src
Test: phosphorylation enrichment, bacterial display (enrichment ratio); higher = better substrate or ligand; peptides without Tyr show the background
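For SH2 binding enrichment of the phosphorylated peptide, bacterial display in this document: peptide library displayed on the E. coli surface as eCPX fusions, selected cells deep-sequenced, score is each peptide's frequency after selection divided by its frequency in the input.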
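For phosphorylation enrichment, bacterial display in this document: 11-residue human phosphosite peptides and single-mutation variants displayed on the E. coli surface, counted by deep sequencing, each peptide's frequency after selection divided by its frequency in the unselected input library; frequency after pTyr selection over input frequency; kinase dosed for 20-30% of maximal phosphorylation in three min.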

Point of comparison: TFRPPYFHRNC [HGD_Y333_YF], phosphorylation enrichment 0.454. Against it:
- SLIDGYYRLTE [JAK2_Y372_A377E] — higher, 0.639
- FNVLQYVVPKV [EIF3A_Y382_E386K] — lower, 0.383
- PANMVYSTVEI [SLAMF7_Y304_T302M] — higher, 8.24
- GMTLSYLFREL [NDUFS8_Y74_P79L] — lower, 0.383
- FGDTPYIPFRD [CDC14C_Y132] — higher, 0.781
- YRGYSYDDIPD [TMEM230_Y112] — higher, 0.463
- GYGGGYGGVLT [KRT19_Y65_A60G] — lower, 0.453
- HTVEDYQAIVD [CCT7_Y263] — higher, 0.836
- HSHTRYERNIE [F2_Y434_R431H] — higher, 0.795
- ERIEFYELDKK [PMM2_Y145] — higher, 0.49
- RELSWYRGRRP [HESX1_Y106] — higher, 0.727
- ALKKPYSVLFK [RPF2_Y59_G60S_YF] — higher, 0.526
- QMVGMYASFYM [AVPR2_Y124_S127F] — higher, 6.92
- DVFVSYDCGKS [SORL1_Y139_Y141C_YF] — lower, 0.449
- DEYLEYRRIVG [FAM221A_Y20] — higher, 1.07
- RHLQEYQDLLN [GFAP_Y349] — lower, 0.399
- LEGEEYRMSGE [KRT3_Y511] — higher, 0.525
- PSNTEYPGPHS [TP63_Y171_D170E] — lower, 0.41
- IVVVPYEPPEV [TP53_Y220_S215I] — lower, 0.386
- SLGKGYSVGGC [MC4R_Y35_D37V] — lower, 0.384
- EPNSRYTFKLE [USH2A_Y3745_YF] — lower, 0.365
- QELRRYLKSSV [MICA_Y194_G198S] — lower, 0.298
- HLGNQYVNVMN [SLC3A1_Y461_R456H] — higher, 0.471
- LSKDLYLISQM [LARP4_Y141] — higher, 0.639
- ISHVAYRVLGK [TRRAP_Y892] — lower, 0.416
- ISMAGYSIPEL [EDAR_Y406_T403M] — higher, 0.508
- RPASVYTKRCS [CPT2_Y508] — higher, 0.476
- EFENSCIFDIN [GAB1_Y83_Y83C] — lower, 0.397
- HFGNNYTDVLQ [MACC1_Y803_R804T_YF] — higher, 0.66
- PADQAYSWFQH [NDST1_Y711_R709Q_YF] — higher, 2.41
- LFSINYLHFGD [KDM4C_Y201_E206D_YF] — higher, 0.612
- KIITDYFVDMK [MPP4_Y566_V562I_YF] — higher, 0.529

Target: Grb2 SH2 (UniProt P62993)
Test: SH2 binding enrichment of the phosphorylated peptide, bacterial display (enrichment ratio); higher = better substrate or ligand; peptides without Tyr show the background

Grb2 SH2, sequence (P62993 whole entry, looked up): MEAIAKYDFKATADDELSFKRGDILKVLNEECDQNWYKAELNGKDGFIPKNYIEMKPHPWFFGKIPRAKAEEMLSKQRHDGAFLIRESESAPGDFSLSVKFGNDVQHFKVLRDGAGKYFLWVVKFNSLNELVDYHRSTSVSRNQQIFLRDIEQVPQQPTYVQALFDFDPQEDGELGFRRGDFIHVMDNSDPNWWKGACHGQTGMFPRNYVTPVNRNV

Point of comparison: HTVEDYQAIVD [CCT7_Y263], SH2 binding enrichment 0.816. Against it:
- SLIDGYYRLTE [JAK2_Y372_A377E] — higher, 0.843
- FNVLQYVVPKV [EIF3A_Y382_E386K] — higher, 1.31
- PANMVYSTVEI [SLAMF7_Y304_T302M] — lower, 0.699
- GMTLSYLFREL [NDUFS8_Y74_P79L] — higher, 1.64
- FGDTPYIPFRD [CDC14C_Y132] — lower, 0.809
- YRGYSYDDIPD [TMEM230_Y112] — higher, 1.15
- GYGGGYGGVLT [KRT19_Y65_A60G] — lower, 0.742
- HSHTRYERNIE [F2_Y434_R431H] — higher, 1.2
- ERIEFYELDKK [PMM2_Y145] — lower, 0.728
- RELSWYRGRRP [HESX1_Y106] — lower, 0.734
- ALKKPYSVLFK [RPF2_Y59_G60S_YF] — higher, 1.6
- QMVGMYASFYM [AVPR2_Y124_S127F] — lower, 0.784
- DVFVSYDCGKS [SORL1_Y139_Y141C_YF] — higher, 0.964
- DEYLEYRRIVG [FAM221A_Y20] — higher, 1.03
- RHLQEYQDLLN [GFAP_Y349] — higher, 1.71
- LEGEEYRMSGE [KRT3_Y511] — higher, 0.908
- PSNTEYPGPHS [TP63_Y171_D170E] — higher, 1.48
- IVVVPYEPPEV [TP53_Y220_S215I] — higher, 0.835
- TFRPPYFHRNC [HGD_Y333_YF] — higher, 1.1
- SLGKGYSVGGC [MC4R_Y35_D37V] — higher, 0.888
- EPNSRYTFKLE [USH2A_Y3745_YF] — higher, 0.818
- QELRRYLKSSV [MICA_Y194_G198S] — lower, 0.732
- HLGNQYVNVMN [SLC3A1_Y461_R456H] — higher, 20.1
- LSKDLYLISQM [LARP4_Y141] — higher, 0.912
- ISHVAYRVLGK [TRRAP_Y892] — lower, 0.775
- ISMAGYSIPEL [EDAR_Y406_T403M] — higher, 0.827
- RPASVYTKRCS [CPT2_Y508] — higher, 1.1
- EFENSCIFDIN [GAB1_Y83_Y83C] — higher, 1.18
- HFGNNYTDVLQ [MACC1_Y803_R804T_YF] — lower, 0.711
- PADQAYSWFQH [NDST1_Y711_R709Q_YF] — lower, 0.648
- LFSINYLHFGD [KDM4C_Y201_E206D_YF] — higher, 1.5
- KIITDYFVDMK [MPP4_Y566_V562I_YF] — higher, 0.83

Target: SHP2-C SH2
Test: as above

Point of comparison: RHLQEYQDLLN [GFAP_Y349], SH2 binding enrichment 1.27. Against it:
- SLIDGYYRLTE [JAK2_Y372_A377E] — lower, 1.21
- FNVLQYVVPKV [EIF3A_Y382_E386K] — higher, 2.18
- PANMVYSTVEI [SLAMF7_Y304_T302M] — lower, 0.546
- GMTLSYLFREL [NDUFS8_Y74_P79L] — higher, 1.47
- FGDTPYIPFRD [CDC14C_Y132] — lower, 0.757
- YRGYSYDDIPD [TMEM230_Y112] — lower, 0.893
- GYGGGYGGVLT [KRT19_Y65_A60G] — lower, 0.791
- HTVEDYQAIVD [CCT7_Y263] — lower, 0.807
- HSHTRYERNIE [F2_Y434_R431H] — lower, 1.12
- ERIEFYELDKK [PMM2_Y145] — lower, 0.626
- RELSWYRGRRP [HESX1_Y106] — lower, 0.422
- ALKKPYSVLFK [RPF2_Y59_G60S_YF] — higher, 1.65
- QMVGMYASFYM [AVPR2_Y124_S127F] — lower, 0.842
- DVFVSYDCGKS [SORL1_Y139_Y141C_YF] — lower, 0.592
- DEYLEYRRIVG [FAM221A_Y20] — lower, 0.762
- LEGEEYRMSGE [KRT3_Y511] — lower, 0.562
- PSNTEYPGPHS [TP63_Y171_D170E] — lower, 0.362
- IVVVPYEPPEV [TP53_Y220_S215I] — lower, 0.763
- TFRPPYFHRNC [HGD_Y333_YF] — higher, 1.41
- SLGKGYSVGGC [MC4R_Y35_D37V] — lower, 0.867
- EPNSRYTFKLE [USH2A_Y3745_YF] — lower, 0.669
- QELRRYLKSSV [MICA_Y194_G198S] — lower, 0.502
- HLGNQYVNVMN [SLC3A1_Y461_R456H] — higher, 2.63
- LSKDLYLISQM [LARP4_Y141] — lower, 1.08
- ISHVAYRVLGK [TRRAP_Y892] — lower, 0.732
- ISMAGYSIPEL [EDAR_Y406_T403M] — lower, 0.861
- RPASVYTKRCS [CPT2_Y508] — lower, 0.643
- EFENSCIFDIN [GAB1_Y83_Y83C] — lower, 0.732
- HFGNNYTDVLQ [MACC1_Y803_R804T_YF] — higher, 3.84
- PADQAYSWFQH [NDST1_Y711_R709Q_YF] — lower, 1.01
- LFSINYLHFGD [KDM4C_Y201_E206D_YF] — lower, 1.23
- KIITDYFVDMK [MPP4_Y566_V562I_YF] — lower, 0.571

Target: c-Src SH2
Test: as above

Point of comparison: RPASVYTKRCS [CPT2_Y508], SH2 binding enrichment 0.622. Against it:
- SLIDGYYRLTE [JAK2_Y372_A377E] — higher, 2.49
- FNVLQYVVPKV [EIF3A_Y382_E386K] — higher, 0.964
- PANMVYSTVEI [SLAMF7_Y304_T302M] — higher, 0.833
- GMTLSYLFREL [NDUFS8_Y74_P79L] — higher, 1.24
- FGDTPYIPFRD [CDC14C_Y132] — lower, 0.602
- YRGYSYDDIPD [TMEM230_Y112] — higher, 13.6
- GYGGGYGGVLT [KRT19_Y65_A60G] — lower, 0.448
- HTVEDYQAIVD [CCT7_Y263] — lower, 0.465
- HSHTRYERNIE [F2_Y434_R431H] — higher, 0.843
- ERIEFYELDKK [PMM2_Y145] — higher, 0.708
- RELSWYRGRRP [HESX1_Y106] — lower, 0.318
- ALKKPYSVLFK [RPF2_Y59_G60S_YF] — higher, 1.58
- QMVGMYASFYM [AVPR2_Y124_S127F] — lower, 0.538
- DVFVSYDCGKS [SORL1_Y139_Y141C_YF] — lower, 0.528
- DEYLEYRRIVG [FAM221A_Y20] — lower, 0.547
- RHLQEYQDLLN [GFAP_Y349] — higher, 1.13
- LEGEEYRMSGE [KRT3_Y511] — lower, 0.461
- PSNTEYPGPHS [TP63_Y171_D170E] — lower, 0.373
- IVVVPYEPPEV [TP53_Y220_S215I] — higher, 0.811
- TFRPPYFHRNC [HGD_Y333_YF] — higher, 1.09
- SLGKGYSVGGC [MC4R_Y35_D37V] — lower, 0.517
- EPNSRYTFKLE [USH2A_Y3745_YF] — lower, 0.476
- QELRRYLKSSV [MICA_Y194_G198S] — lower, 0.426
- HLGNQYVNVMN [SLC3A1_Y461_R456H] — higher, 4
- LSKDLYLISQM [LARP4_Y141] — lower, 0.413
- ISHVAYRVLGK [TRRAP_Y892] — lower, 0.488
- ISMAGYSIPEL [EDAR_Y406_T403M] — higher, 10.4
- EFENSCIFDIN [GAB1_Y83_Y83C] — higher, 0.786
- HFGNNYTDVLQ [MACC1_Y803_R804T_YF] — higher, 3.44
- PADQAYSWFQH [NDST1_Y711_R709Q_YF] — higher, 0.891
- LFSINYLHFGD [KDM4C_Y201_E206D_YF] — higher, 1.24
- KIITDYFVDMK [MPP4_Y566_V562I_YF] — lower, 0.526

Source: the supplement of paper PMC10065799, “High-throughput profiling of sequence recognition by tyrosine kinases and SH2 domains using bacterial peptide display” (eLife, 2023)
